The target in this test is T1, FGFR1c-βKlotho-FGF21 (UniProt P11362+Q99N32).
T1 construct: the ectodomain of murine βKlotho (F53 to L995) was expressed in HEK293 cells; FLAG (C); made in house; host or cells: E. coli (FGFR1c, FGF21); HEK293 (βKlotho ectodomain)
T1 sequence (P11362 142-365): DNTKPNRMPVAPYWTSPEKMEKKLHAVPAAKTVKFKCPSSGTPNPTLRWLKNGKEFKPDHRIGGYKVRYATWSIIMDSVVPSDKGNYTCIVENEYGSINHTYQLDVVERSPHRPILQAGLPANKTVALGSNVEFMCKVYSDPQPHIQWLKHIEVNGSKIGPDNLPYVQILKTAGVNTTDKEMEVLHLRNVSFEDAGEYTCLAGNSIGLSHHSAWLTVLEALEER
T1 sequence (Q99N32 53-995): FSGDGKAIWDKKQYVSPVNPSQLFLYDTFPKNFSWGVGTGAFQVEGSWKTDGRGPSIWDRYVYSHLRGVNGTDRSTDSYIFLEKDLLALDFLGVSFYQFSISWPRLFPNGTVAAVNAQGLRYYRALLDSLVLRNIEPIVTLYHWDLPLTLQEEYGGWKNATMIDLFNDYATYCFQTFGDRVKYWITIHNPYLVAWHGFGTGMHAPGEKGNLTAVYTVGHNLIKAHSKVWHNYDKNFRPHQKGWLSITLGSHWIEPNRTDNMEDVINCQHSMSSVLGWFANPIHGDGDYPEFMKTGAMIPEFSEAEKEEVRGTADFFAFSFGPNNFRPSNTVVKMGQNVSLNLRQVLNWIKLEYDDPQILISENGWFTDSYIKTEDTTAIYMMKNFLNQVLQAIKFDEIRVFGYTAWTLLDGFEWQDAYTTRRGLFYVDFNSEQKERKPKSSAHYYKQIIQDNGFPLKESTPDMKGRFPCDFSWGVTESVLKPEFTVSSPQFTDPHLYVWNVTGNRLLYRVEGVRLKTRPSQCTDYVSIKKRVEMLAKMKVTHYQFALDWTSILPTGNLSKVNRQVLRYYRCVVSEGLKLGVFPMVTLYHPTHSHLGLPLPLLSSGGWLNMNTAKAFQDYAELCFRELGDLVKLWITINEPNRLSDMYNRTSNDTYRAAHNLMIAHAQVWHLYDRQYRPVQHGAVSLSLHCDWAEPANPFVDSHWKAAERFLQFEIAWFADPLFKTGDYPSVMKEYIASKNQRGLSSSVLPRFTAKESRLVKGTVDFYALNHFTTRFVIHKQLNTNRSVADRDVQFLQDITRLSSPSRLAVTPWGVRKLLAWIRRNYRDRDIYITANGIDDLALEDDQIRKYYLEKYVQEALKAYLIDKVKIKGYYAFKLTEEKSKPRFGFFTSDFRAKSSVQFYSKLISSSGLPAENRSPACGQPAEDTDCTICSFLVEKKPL
The test can be described thus: SPR specificity: FGFR1c-βKlotho binding to immobilized FGF21^29-209. More on the design: species or system human FGFR1c, murine βKlotho, human FGF21. Particulars: 10-fold molar excess over FGFR1c-βKlotho.

Entries after “also recorded” stand apart in the source; their conditions may differ.

B1: FGF23^180-251: 72-amino acid C-terminal tail of human FGF23 (S180 to I251), expressed in E. coli (protein, listed as Homo sapiens)
chain: SAEDDSERDPLNVLKPRARMTPAPASCSQELPSAEDNSPMASDPLGVVRGGRVNTHAGGTGPEGCRPFAKFI
As for B1, the “inhibition of FGFR1c-βKlotho binding to immobilized FGF21” value was “did not affect; also recorded: no inhibition”.

For the origin of these results see US8889621B2, “Inhibiting binding of FGF23 to the binary FGFR-Klotho complex for the treatment of hypophosphatemia” (New York University, priority 2009, dated 2014).
